According to patent US20190112340A1 (US Dept. of Health and Human Services, published 2019):

Tests used:
[1] = target: T1, bRSV F strain 391-2 sc9-10, DS-Cav1, Q98C-Q361C (bovine RSV, strain 391-2); test: Fab binding to purified bRSV F trimer (Octet BLI as in Example 1)
[2] = target: T2, bRSV F ATue51908 sc9-10 DS-Cav1 A149C Y458C (bovine RSV, strain ATue51908 …); test: as above
bRSV F 391-2 DS-Cav1 [3] = target: T3, bRSV F 391-2 DS-Cav1 (bovine RSV, strain 391-2, UniProt P22167 26-574); test: as above
bRSV F ATue51908 DS-Cav1 [4] = target: T4, bRSV F ATue51908 DS-Cav1 (bovine RSV, strain ATue51908, UniProt P22167 26-109; P22167 137-513); test: as above
[5] = target: T5, bRSV F 391-2 sc9 DS-Cav1 Q98C Q361C (bovine RSV, strain 391-2, UniProt P22167 26-513); test: as above
bRSV F RB94 DS-Cav1 [6] = target: T6, bRSV F RB94 DS-Cav1 (bovine RSV, strain RB94, UniProt P23728 26-109; P23728 137-513); test: as above
[7] = target: T1, bRSV F strain 391-2 sc9-10, DS-Cav1, …; test: D25 binding to stressed pre-F trimer as a fraction of the untreated protein (physical stability)
[8] = target: T2, bRSV F ATue51908 sc9-10 DS-Cav1 A149C …; test: as above
bRSV F 391-2 DS-Cav1 [9] = target: T3, bRSV F 391-2 DS-Cav1; test: as above
bRSV F ATue51908 DS-Cav1 [10] = target: T4, bRSV F ATue51908 DS-Cav1; test: as above
[11] = target: T5, bRSV F 391-2 sc9 DS-Cav1 Q98C Q361C; test: as above
bRSV F RB94 DS-Cav1 [12] = target: T6, bRSV F RB94 DS-Cav1; test: as above
sc9-19 DS-Cav1 [13] = target: T7, sc9-19 DS-Cav1 (Engineered disulfide 155C-290C. Glycoprotein; it assembles as a trimer and one protomer is given.); test: BLI (Octet), D25 Fab binding after/before stress
RSV F sc9-10 DS-Cav1 [14] = target: T8, RSV F sc9-10 DS-Cav1 (human RSV subtype A (strain A2)); test: BLI (Octet), D25 Fab binding after/before stress
sc9-24 DS-Cav1 [15] = test: BLI (Octet), D25 Fab binding after/before stress
[16] = target: sc9-10 DS-Cav1 Q98C, Q361C L95M-I221M-R429K (B18537); test: BLI (Octet), F on Ni-NTA tips, Fab in solution
[17] = target: sc9-10 DS-Cav1 Q98C, Q361C S46G-E92D-L95M-S215P-I217P-I221M-R429K-K465Q (Long (VR26)); test: BLI (Octet), F on Ni-NTA tips, Fab in solution
sc9-19 DS-Cav1 [18] = target: T7, sc9-19 DS-Cav1; test: BLI (Octet), F on Ni-NTA tips, Fab in solution
RSV F sc9-10 DS-Cav1 [19] = target: T8, RSV F sc9-10 DS-Cav1; test: BLI (Octet), F on Ni-NTA tips, Fab in solution
sc9-24 DS-Cav1 [20] = test: BLI (Octet), F on Ni-NTA tips, Fab in solution
RSV F sc9-9 DS-Cav1 = RSV F sc9-9 DS-Cav1 (human RSV subtype A (strain A2), UniProt P03420 26-96; P03420 145-513); test: BLI (Octet), F on Ni-NTA tips, Fab in solution
sc9 DS-Cav1-105Q = sc9 DS-Cav1-105Q (Engineered disulfide 155C-290C. Glycoprotein; it assembles as a trimer and one protomer is given.); test: BLI (Octet), F on Ni-NTA tips, Fab in solution
sc8 DS-Cav1 = test: BLI (Octet), F on Ni-NTA tips, Fab in solution
sc11 DS-Cav1 = sc11 DS-Cav1 (Engineered disulfide 155C-290C. Engineered cysteines 512C/513C. Glycoprotein; one protomer is given.); test: BLI (Octet), F on Ni-NTA tips, Fab in solution
sc9-10 Cav1only 100-361 = test: ELISA after 1 week at 4 °C
sc9-10 Cav1only 99-361 = test: ELISA after 1 week at 4 °C
sc9-10 Cav1only = test: ELISA after 1 week at 4 °C
sc9-10 Cav1only 146-458 = test: ELISA after 1 week at 4 °C
sc9-10 Cav1only 99-362 = test: ELISA after 1 week at 4 °C
[21] = target: sc9-10 N183GC N428C Long CAV1only; test: ELISA after 1 week at 4 °C
sc9-10 Cav1only 369-455 = test: ELISA after 1 week at 4 °C
[22] = target: sc9-10 A149C Y458C Long CAV1only; test: ELISA after 1 week at 4 °C
sc9-10 Cav1only 100-362 = test: ELISA after 1 week at 4 °C
sc9-10 Cav1only 98-362 = test: ELISA after 1 week at 4 °C
sc9-10 Cav1only 98-361 = test: ELISA after 1 week at 4 °C
RSVF Cav1only = test: ELISA after 1 week at 4 °C

B1: D25 Fab (Fab, V domains shown)
VH: QVQLVQSGAEVKKPGSSVMVSCQASGGPLRNYIINWLRQAPGQGPEWMGGIIPVLGTVHYAPKFQGRVTITADESTDTAYIHLISLRSEDTAMYYCATETALVVSTTYLPHYFDNWGQGTLVTVSS
VL: DIQMTQSPSSLSAAVGDRVTITCQASQDIVNYLNWYQQKPGKAPKLLIYVASNLETGVPSRFSGSGSGTDFSLTISSLQPEDVATYYCQQYDNLPLTFGGGTKVEIKR
[1]
  Kd: 57.5 nM
[2]
  Kd: 420 nM
bRSV F 391-2 DS-Cav1 [3]
  Kd: 0.4 nM
bRSV F ATue51908 DS-Cav1 [4]
  Kd: 10.8 nM
[5]
  Kd: 24.3 nM
bRSV F RB94 DS-Cav1 [6]
  Kd: 24.3 nM
[7]
  fractional antibody reactivity after 10 cycles of freeze-thaw: 1 fraction
  fractional antibody reactivity after 50 °C: 1 fraction
  fractional antibody reactivity after 70 °C: 1 fraction
  fractional antibody reactivity after osmolarity 10 mM: 0.8 fraction
  fractional antibody reactivity after osmolarity 3000 mM: 0.8 fraction
  fractional antibody reactivity after pH 3.5: 0.9 fraction
  fractional antibody reactivity after pH 10.0: 0.9 fraction
[8]
  fractional antibody reactivity after 10 cycles of freeze-thaw: 1 fraction
  fractional antibody reactivity after 50 °C: 0.9 fraction
  fractional antibody reactivity after 70 °C: 0.9 fraction
  fractional antibody reactivity after osmolarity 10 mM: 0.7 fraction
  fractional antibody reactivity after osmolarity 3000 mM: 0.8 fraction
  fractional antibody reactivity after pH 3.5: 1 fraction
  fractional antibody reactivity after pH 10.0: 0.9 fraction
bRSV F 391-2 DS-Cav1 [9]
  fractional antibody reactivity after 10 cycles of freeze-thaw: 1 fraction
  fractional antibody reactivity after 50 °C: 0.7 fraction
  fractional antibody reactivity after 70 °C: 0.1 fraction
  fractional antibody reactivity after osmolarity 10 mM: 0.9 fraction
  fractional antibody reactivity after osmolarity 3000 mM: 0.6 fraction
  fractional antibody reactivity after pH 3.5: 0.9 fraction
  fractional antibody reactivity after pH 10.0: 1.2 fraction
bRSV F ATue51908 DS-Cav1 [10]
  fractional antibody reactivity after 10 cycles of freeze-thaw: 1 fraction
  fractional antibody reactivity after 50 °C: 0.9 fraction
  fractional antibody reactivity after 70 °C: 0.1 fraction
  fractional antibody reactivity after osmolarity 10 mM: 0.7 fraction
  fractional antibody reactivity after osmolarity 3000 mM: 0.4 fraction
  fractional antibody reactivity after pH 3.5: 0.9 fraction
[11]
  fractional antibody reactivity after 10 cycles of freeze-thaw: 1 fraction
  fractional antibody reactivity after 50 °C: 0.9 fraction
  fractional antibody reactivity after 70 °C: 0.8 fraction
  fractional antibody reactivity after osmolarity 10 mM: 1 fraction
  fractional antibody reactivity after osmolarity 3000 mM: 0.9 fraction
  fractional antibody reactivity after pH 3.5: 1.2 fraction
  fractional antibody reactivity after pH 10.0: 1 fraction
bRSV F RB94 DS-Cav1 [12]
  fractional antibody reactivity after 10 cycles of freeze-thaw: 1 fraction
  fractional antibody reactivity after 50 °C: 0.6 fraction
  fractional antibody reactivity after 70 °C: 0.1 fraction
  fractional antibody reactivity after osmolarity 10 mM: 0.8 fraction
  fractional antibody reactivity after osmolarity 3000 mM: 0.5 fraction
  fractional antibody reactivity after pH 3.5: 1.2 fraction
  fractional antibody reactivity after pH 10.0: 1.3 fraction
sc9-19 DS-Cav1 [13]
  fractional D25 reactivity, 50 °C: 0.9
  fractional D25 reactivity, 70 °C: 0.9
  fractional D25 reactivity, freeze-thaw: 0.04
  fractional D25 reactivity, osmolality 10 mM: 0.6
  fractional D25 reactivity, osmolality 3000 mM: 0.5
  fractional D25 reactivity, pH 3.5: 0.7
  fractional D25 reactivity, pH 10.0: 0.8
RSV F sc9-10 DS-Cav1 [14]
  fractional D25 reactivity, 50 °C: 0.9
  fractional D25 reactivity, 70 °C: 0.9
  fractional D25 reactivity, freeze-thaw: 0.2
  fractional D25 reactivity, osmolality 10 mM: 1.4
  fractional D25 reactivity, osmolality 3000 mM: 0.7
  fractional D25 reactivity, pH 3.5: 1.5
  fractional D25 reactivity, pH 10.0: 0.7
sc9-24 DS-Cav1 [15]
  fractional D25 reactivity, 50 °C: 0.9
  fractional D25 reactivity, 70 °C: 0.9
  fractional D25 reactivity, freeze-thaw: 0
  fractional D25 reactivity, osmolality 10 mM: 0.5
  fractional D25 reactivity, osmolality 3000 mM: 0.5
  fractional D25 reactivity, pH 3.5: 0.7
  fractional D25 reactivity, pH 10.0: 0.7
[16]
  Kd: 0.1 nM
[17]
  Kd: 0.1 nM
sc9-19 DS-Cav1 [18]
  Kd: 0.8 nM
RSV F sc9-10 DS-Cav1 [19]
  Kd: 0.8 nM
sc9-24 DS-Cav1 [20]
  Kd: 0.8 nM
RSV F sc9-9 DS-Cav1
  Kd: 0.2 nM
sc9 DS-Cav1-105Q
  Kd: 0.7 nM
sc8 DS-Cav1
  Kd: 7.4 nM
sc11 DS-Cav1
  Kd: 0.7 nM

B2: D25 antibody (antibody, V domains shown)
VH: QVQLVQSGAEVKKPGSSVMVSCQASGGPLRNYIINWLRQAPGQGPEWMGGIIPVLGTVHYAPKFQGRVTITADESTDTAYIHLISLRSEDTAMYYCATETALVVSTTYLPHYFDNWGQGTLVTVSS
VL: DIQMTQSPSSLSAAVGDRVTITCQASQDIVNYLNWYQQKPGKAPKLLIYVASNLETGVPSRFSGSGSGTDFSLTISSLQPEDVATYYCQQYDNLPLTFGGGTKVEIKR
sc9-10 Cav1only 100-361
  ELISA signal (antigenicity): 0.92
sc9-10 Cav1only 99-361
  ELISA signal (antigenicity): 2.89
sc9-10 Cav1only
  ELISA signal (antigenicity): 3.6
sc9-10 Cav1only 146-458
  ELISA signal (antigenicity): 2.34
sc9-10 Cav1only 99-362
  ELISA signal (antigenicity): 1.39
[21]
  ELISA signal (antigenicity): 0.502
sc9-10 Cav1only 369-455
  ELISA signal (antigenicity): 2.94
[22]
  ELISA signal (antigenicity): 2.88
sc9-10 Cav1only 100-362
  ELISA signal (antigenicity): 0.416
sc9-10 Cav1only 98-362
  ELISA signal (antigenicity): 0.957
sc9-10 Cav1only 98-361
  ELISA signal (antigenicity): 1.84
RSVF Cav1only
  ELISA signal (antigenicity): 3.33
